According to paper PMC7794297:

Substrate: OC[C@H]1O[C@@H](O)[C@H](O)[C@@H](O)[C@@H]1O
Experiment: GOx activity assay, glucose oxidase-horseradish peroxidase coupled system with o-dianisidine
Format: biochemical, Aspergillus niger
Settings: other: control, glucose conversion; 37.0 °C

B1: glucose oxidase (GOx) (Aspergillus niger) (protein)
chain: LPHYIRSNGIEASLLTDPKDVSGRTVDYIIAGGGLTGLTTAARLTENPNISVLVIESGSYESDRGPIIEDLNAYGDIFGSSVDHAYETVELATNNQTALIRSGNGLGGSTLVNGGTWTRPHKAQVDSWETVFGNEGWNWDNVAAYSLQAERARAPNAKQIAAGHYFNASCHGVNGTVHAGPRDTGDDYSPIVKALMSAVEDRGVPTKKDFGCGDPHGVSMFPNTLHEDQVRSDAAREWLLPNYQRPNLQVLTGQYVGKVLLSQNGTTPRAVGVEFGTHKGNTHNVYAKHEVLLAAGSAVSPTILEYSGIGMKSILEPLGIDTVVDLPVGLNLQDQTTATVRSRITSAGAGQGQAAWFATFNETFGDYSEKAHELLNTKLEQWAEEAVARGGFHNTTALLIQYENYRDWIVNHNVAYSELFLDTAGVASFDVWDLLPFTRGYVHILDKDPYLHHFAYDPQYFLNELDLLGQAAATQLARNISNSGAMQTYFAGETIPGDNLAYDADLSAWTEYIPYHFRPNYHGVGTCSMMPKEMGGVVDNAARVYGVQGLRVIDGSIPPTQMSSHVMTVFYAMALKISDAILEDYASMQ
notes: purchased Sigma Aldrich
B1 gave a Km of 15 ± 2 mM and a kcat of 0.00233 ± 0.00017 s⁻¹.
